Data as given in patent US20240002499A1 (UNIVERSITA DEGLI STUDI DI MILANO, published 2024).

T1: QVELF sequence (human)
T1 peptide: QVELF

T2: QVELFV sequence (human)
T2 peptide: QVELFV

B1: tmCLIC1omab (antibody, IgG1, V domains shown)
VH: EVMLVESGGGLVKPGGSLKLSCAASGFAFSNYAMSWIRQIPEKRLEWVATISTGGSSTFYPDSVKGRFTISRDNAKNTLYLQMSSLRSEDTAMYYCTRHAYEAWFAYWGQGTLVTVSA
VL: QIVLTQSPALMSASPGEKVTMTCSASSSVSYMYWYQQRPRSSPKPWIYLTSTLASGVPTRFSGSGSGTSYSLTISSMEAEDAATYYCQQWNSHPLTFGSGTKLEIK
notes: IgG1 class monoclonal antibody from mouse hybridoma; also called tmCLIComab; anti-tmCLIC1 monoclonal antibody
B2: class IgG2b antibody containing the heavy chain variable region SEQ ID NO:15 and the light chain variable region SEQ ID NO:16 (antibody, V domains shown)
VH: EVKLVESGGGLVKPGGSLKLSCAASGFTFSGYVMSWVRQTPDKRLEWVASISSGGSSYYSDRVKGRLTISRDNARNILFLQMSSLRSEDSAMYYCANGYNYAMDYWGQGTSVTVSS
VL: DIVMTQSHKFMSISVGDRVSITCKASQDVGTAVAWYQQKPGQSPQLLIYWASTWHTGVPDRFTGSGSGTDFTLTITNVQSEDLADYFCQQYKLFPLTFGAGTRLELK
notes: IgG2b

What was measured:
[1] = molecular target: T3, human CLIC1 protein located on the plasma membrane (tmCLIC1) (human, UniProt O00299 2-241); test: cell-based or functional assay
[2] = molecular target: CLIC1 protein of microglial cells (BV-2), transmembrane form after stimulation (mouse, UniProt Q9Z1Q5 2-241); test: cell-based or functional assay
QVELF sequence = molecular target: T1, QVELF sequence; test: PEPperMAP linear peptide microarray
Method: (§1) PEPperMAP epitope Mapping® of the tmCLIC1omab antibody was conducted against the peptide […] (amino acids 3-24 of the CLIC1 protein) translated to linear peptides consisting of 5, 10 and 15 amino acids with peptide-peptide overlaps of 4, 9 and 14 amino acids for high-resolution epitope data. The resulting CLIC1 peptide microarrays were incubated with the antibody samples at concentrations of 1 μg/ml, 10 μg/ml, 100 μg/ml and 250 μg/ml in incubation buffer, followed by staining with secondary and control antibodies and reading with a LI-COR Odyssey Imaging System. The intensity of the points and peptide annotation were quantified with the PepSlide® Analyzer.
(§2) Conversely, incubation of a second copy of the microarray of CLIC1 peptides with the tmCLIC1omab monoclonal antibody gave an antibody response with the epitopes formed by peptides adjacent to the VELF consensus motif (SEQ ID NO:22), with all peptide lengths having low or moderate signal-to-noise ratios. Additional very weak interactions of the antibody with the HA control peptides were observed, perhaps because of a cross-reaction or a less specific antibody bond. With the peptides consisting of 10 and […], longer […] (10 aa) (SEQ ID NO:23) and […] (15 aa) (SEQ ID NO:24) consensus motifs were observed, the underlined letters of which form part of linker […] (SEQ ID NO:25) specific to the microarray.

QVELFV sequence = molecular target: T2, QVELFV sequence; test: PEPperMAP linear peptide microarray
Method: as §1, §2

[3] = molecular target: T3, human CLIC1 protein located on the …; test: not specified (same experimental models as tmCLIC1omab)

Binder | ROS production over time in human glioblastoma cells (fluorescence) [1] [fold] | membrane current, patch-clamp in whole-cell configuration on BV2 microglial cells after β-amyloid [2] [fold] | binding result (QVELF sequence) | binding result (QVELFV sequence) | binding result [3]
B1 | ~5 | ~4 | binds | binds | –
B2 | – | – | – | – | binds
